Laboratory results reported in patent US20130133089A1 (MEDICAL RESEARCH INFRASTRUCTURE AND HEALTH SERVICES FUND OF …, published 2013).
Residue numbers refer to the chain shown, from its start. Names may count otherwise. Read-outs that look alike come from different tables or passages of the source.

Legend:
[1] = target: long form of human leptin receptor (hLEPR) on BAF/3 or H-49 (HEK-293) cells (human) (UniProt P48357); assay: cell-based or functional assay
[2] = target: Recombinant human leptin binding domain (hLBD) (human) (UniProt P48357); assay: competitive plate binding assay: immobilized hLBD, biotinylated mouse leptin as ligand, mutein as competitor
[3] = target: T1, Recombinant human leptin binding domain (hLBD) (human, UniProt P48357 428-635, biotinylated with Sulfo-NHS-LC-Biotin in the yeast display assays; not labelled when immobilized in the plate binding assay); assay: as above
T1 construct: CRH2 sub-domain of the leptin receptor; Prepared in the applicants' laboratory; also called soluble human leptin receptor; CHR2
T1 sequence (looked up): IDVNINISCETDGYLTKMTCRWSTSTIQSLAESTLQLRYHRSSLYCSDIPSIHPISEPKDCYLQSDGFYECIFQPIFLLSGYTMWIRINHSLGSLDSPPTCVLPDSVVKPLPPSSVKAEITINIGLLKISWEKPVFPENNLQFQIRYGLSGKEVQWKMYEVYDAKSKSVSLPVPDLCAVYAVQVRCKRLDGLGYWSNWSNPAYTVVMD
Description: (§1) Biotinylated mouse leptin served as the ligand in all competitive experiments and the respective mouse leptin or mouse or human leptin antagonist muteins as competitors. The hLBD was used as the receptor source. Polystyrene 96-well microtiter plates were coated overnight at 4° C. with 100 μl of 40 μM hLBD in PBS pH 7.4. Wells were then washed one time with PBST (PBS containing 0.05 Tween 20) and blocked with PBS containing 3% skim milk for two hours in room temperature. All further incubations were carried out at room temperature. Wells were washed one time with PBST and incubated with different concentrations of un-labeled leptins (50 μl/well) for 30 min and then 50 μl of 62.5 μM of biotinylated mouse leptin were added to each well for another two hours. Then the wells were washed three times with PBST and incubated with 1:30,000 streptavidin-HRP in PBS containing 1 Tween 20 for one hour. Subsequently the wells were washed three times with PBST and the reaction was quantified in 450 nm by microplate reader ELISA Plate Reader ELx808—Bio-Tek Instrument Inc. (Winooski, Vt., USA) using TMB according to manufacturer's instructions.

[4] = target: long form of human leptin receptor (hLEPR) on BAF/3 or H-49 (HEK-293) cells (human), P48357; assay: cell-based or functional assay
[5] = target: T1, Recombinant human leptin binding domain …; assay: competitive plate binding assay: immobilized hLBD, biotinylated mouse leptin as ligand, mutein as competitor; remark: listed apart in the source
Description: as §1

[6] = target: T1, Recombinant human leptin binding domain …; assay: competitive plate binding assay on immobilized hLBD
Description: as §1

[7] = target: T1, Recombinant human leptin binding domain …; assay: competitive plate binding assay on immobilized hLBD (FIG. 12C)
Description: as §1

[8] = target: T1, Recombinant human leptin binding domain …; assay: competitive plate binding assay on immobilized hLBD (FIG. 12D)
Description: as §1

[9] = target: T1, Recombinant human leptin binding domain …; assay: competitive plate binding assay on immobilized hLBD, representative experiment (FIG. 7D)
Description: as §1

Chain of long form of human leptin receptor (hLEPR) on BAF/3 or H-49 (HEK-293) cells (human), P48357 (P48357 22-1165): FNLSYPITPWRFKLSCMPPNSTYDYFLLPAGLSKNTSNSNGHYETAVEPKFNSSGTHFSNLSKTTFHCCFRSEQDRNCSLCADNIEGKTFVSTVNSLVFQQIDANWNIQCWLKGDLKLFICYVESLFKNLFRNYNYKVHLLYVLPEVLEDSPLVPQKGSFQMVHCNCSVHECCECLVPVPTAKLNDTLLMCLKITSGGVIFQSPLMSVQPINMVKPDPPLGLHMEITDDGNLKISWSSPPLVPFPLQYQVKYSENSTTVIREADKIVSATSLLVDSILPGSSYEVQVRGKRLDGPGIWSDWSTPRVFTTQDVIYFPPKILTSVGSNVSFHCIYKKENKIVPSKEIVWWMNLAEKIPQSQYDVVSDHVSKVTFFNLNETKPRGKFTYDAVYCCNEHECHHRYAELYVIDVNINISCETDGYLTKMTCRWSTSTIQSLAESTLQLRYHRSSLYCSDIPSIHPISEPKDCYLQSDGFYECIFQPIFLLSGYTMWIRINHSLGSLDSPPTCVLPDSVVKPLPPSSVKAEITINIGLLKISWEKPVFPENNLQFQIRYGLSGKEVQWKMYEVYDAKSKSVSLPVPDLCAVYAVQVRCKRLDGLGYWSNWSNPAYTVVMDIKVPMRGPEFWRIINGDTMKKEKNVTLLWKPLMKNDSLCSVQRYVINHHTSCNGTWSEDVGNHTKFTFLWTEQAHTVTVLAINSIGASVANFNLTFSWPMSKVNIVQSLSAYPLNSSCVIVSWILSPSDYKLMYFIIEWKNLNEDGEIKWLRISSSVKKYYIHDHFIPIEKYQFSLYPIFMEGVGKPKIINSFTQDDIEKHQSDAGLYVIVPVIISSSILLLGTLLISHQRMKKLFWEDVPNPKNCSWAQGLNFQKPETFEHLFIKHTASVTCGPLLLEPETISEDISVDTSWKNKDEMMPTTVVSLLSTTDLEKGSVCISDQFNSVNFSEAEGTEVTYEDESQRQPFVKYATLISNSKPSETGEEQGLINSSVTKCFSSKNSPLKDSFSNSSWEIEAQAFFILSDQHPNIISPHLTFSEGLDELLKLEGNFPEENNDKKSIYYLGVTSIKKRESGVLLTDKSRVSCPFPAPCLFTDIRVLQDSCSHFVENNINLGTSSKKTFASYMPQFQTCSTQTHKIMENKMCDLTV
Chain of long form of human leptin receptor (hLEPR) on BAF/3 or H-49 (HEK-293) cells (human) (P48357 22-1165): as above

“recombinant mouse leptin mutein H7 (K11R, Q34R, T37A, F92C, S97Y, I136V), agonist (from UniProt P41160 22-167) (ligand)” showed a BAF/3 bioassay: fold increase in bioactivity as compared to the WT mouse leptin [1] of 0.5 fold, a Luciferase bioassay: fold increase in bioactivity as compared to the WT mouse leptin [1] of 0.3 fold and a fold increase in affinity as compared to the WT mouse leptin [2] of 0.83 fold.

B1: mouse leptin antagonist D23G/L39A/D40A/F41A (ligand)
chain: AVPIQKVQDDTKTLIKTIVTRINGISHTQSVSAKQRVTGAAAIPGLHPILSLSKMDQTLAVYQQVLTSLPSQNVLQIANDLENLRDLLHLLAFSKSCSLPQTSGLQKPESLDGVLEASLYSTEVVALSRLQGSLQDILQQLDVSPEC
notes: mature
For B1, the “fold increase in affinity as compared to the WT mouse leptin antagonist” value [3] was 17.5 fold and the BAF/3 bioassay: fold increase in bioactivity as compared to the WT mouse leptin antagonist [4] was 2.5 fold.

B2: recombinant mouse leptin mutein H30 (D23H), agonist (ligand)
chain: B1 chain with G24H, A40L, A41D, A42F
notes: mature
For B2, the “fold increase in affinity as compared to the WT mouse leptin” value [5] was 35 fold, the BAF/3 bioassay: fold increase in bioactivity as compared to the WT mouse leptin [4] was 0.3 fold and the Luciferase bioassay: fold increase in bioactivity as compared to the WT mouse leptin [4] was 0.6 fold.

B3: recombinant mouse leptin mutein H19 (D23G, T37A, G44D), agonist (ligand)
chain: B1 chain with T38A, A40L, A41D, A42F, G45D
notes: mature
B3 was tested, and the “fold increase in affinity as compared to the WT mouse leptin” value [5] was 10.4 fold, the BAF/3 bioassay: fold increase in bioactivity as compared to the WT mouse leptin [4] was 0.9 fold and the Luciferase bioassay: fold increase in bioactivity as compared to the WT mouse leptin [4] was 1.5 fold.

B4: mouse leptin antagonist D23A/L39A/D40A/F41A (ligand)
chain: B1 chain with G24A
notes: mature
In the case of B4, the “fold increase in affinity as compared to the WT mouse leptin antagonist” value [3] is reported as 21 fold and the BAF/3 bioassay: fold increase in bioactivity as compared to the WT mouse leptin antagonist [4] is reported as 3.3 fold.

B5: mouse leptin antagonist D23F/L39A/D40A/F41A (ligand)
chain: B1 chain with G24F
notes: mature
With B5 the “fold increase in affinity as compared to the WT mouse leptin antagonist” value [3] was 28 fold and the BAF/3 bioassay: fold increase in bioactivity as compared to the WT mouse leptin antagonist [4] was 3.7 fold.

B6: pegylated mouse leptin antagonist (PEG-MLA) (ligand)
chain: B1 chain with G24D
modifications: pegylated (method previously described for MLA; 20 kDa PEG, site not restated here)
notes: mature; also called pegylated-MLA
In the case of B6, the “fold reduction in affinity by pegylation, as compared to MLA” value [6] is reported as 6.3 fold.

B7: mouse leptin antagonist D23W/L39A/D40A/F41A (ligand)
chain: B1 chain with G24W
notes: mature
B7 was tested, and the “fold increase in affinity as compared to the WT mouse leptin antagonist” value [3] was 36 fold and the BAF/3 bioassay: fold increase in bioactivity as compared to the WT mouse leptin antagonist [4] was 4.2 fold.

B8: mouse leptin antagonist D23H/L39A/D40A/F41A (ligand)
chain: B1 chain with G24H
notes: mature; also called H30 (antagonist); D23H MLA
For B8, the “fold increase in affinity as compared to the WT mouse leptin antagonist” value [5] was 34 fold, the “fold increase in affinity as compared to the WT mouse leptin antagonist” value [3] was 34 fold and the BAF/3 bioassay: fold increase in bioactivity as compared to the WT mouse leptin antagonist [4] was 5 fold. For the same molecule, the Luciferase bioassay: fold increase in bioactivity as compared to the WT mouse leptin antagonist [4] was 5.7 fold.

B9: mouse leptin antagonist D23R/L39A/D40A/F41A (ligand)
chain: B1 chain with G24R
notes: mature; also called D23R MLA
B9 was tested, and the “fold increase in affinity as compared to the WT mouse leptin antagonist” value [3] was 51 fold and the BAF/3 bioassay: fold increase in bioactivity as compared to the WT mouse leptin antagonist [4] was 8.6 fold.

B10: mouse leptin antagonist D23K/L39A/D40A/F41A (ligand)
chain: B1 chain with G24K
notes: mature
For B10, the “fold increase in affinity as compared to the WT mouse leptin antagonist” value [3] was 19 fold and the BAF/3 bioassay: fold increase in bioactivity as compared to the WT mouse leptin antagonist [4] was 3.7 fold.

B11: human leptin super antagonist (SHLA), human leptin D23L/L39A/D40A/F41A (ligand)
chain: VPIQKVQDDTKTLIKTIVTRINLISHTQSVSSKQKVTGAAAIPGLHPILTLSKMDQTLAVYQQILTSMPSQNVIQISNDLENLRDLLHVLAFSKSCHLPWASGLETLDSLGGVLEASGYSTEVVALSRLQGSLQDMLWQLDLSPGC
notes: also called super active human leptin antagonist
With B11 the “fold increase in the affinity due to D23L mutation (against HLA)” value [7] was 44 fold.

B12: pegylated human leptin super antagonist (PEG-SHLA) (ligand)
chain: B11 chain
modifications: mPEG-propionyl-ALD 20 kDa, preferentially on the N-terminal amino group
B12 was tested, and the “fold increase in the affinity due to D23L mutation (against PEG-HLA)” value [8] was 80 fold.

B13: pegylated superactive mouse leptin antagonist (PEG-SMLA) (ligand)
chain: VPIQKVQDDTKTLIKTLVTRINLISHTQSVSAKQRVTGAAAIPGLHPILSLSKMDQTLAVYQQVLTSLPSQNVLQIANDLENLRDLLHLLAFSKSCSLPQTSGLQKPESLDGVLEASLYSTEVVALSRLQGSLQDILQQVDLSPGC
modifications: mPEG-propionyl-ALD 20 kDa, preferentially on the N-terminal amino group (85% monopegylated, ~9% double pegylated)
notes: also called pegylated SMLA; superANT
For B13, the “fold reduction in affinity as compared to the non-pegylated SMLA” value [9] was 6.2 fold.

B14: superactive mouse leptin antagonist (SMLA), D23L/L39A/D40A/F41A mouse leptin (ligand)
chain: B13 chain
notes: also called D23L MLA; super active MLA
B14 was tested, and the “fold increase in affinity as compared to the WT mouse leptin antagonist” value [3] was 64 fold.
